These results are taken from paper PMC11167000 (2024).

Test [1] addresses T1, human Growth Differentiation Factor 5 (GDF5, A382–R501) (human, UniProt P43026 382-501).
T1 chain: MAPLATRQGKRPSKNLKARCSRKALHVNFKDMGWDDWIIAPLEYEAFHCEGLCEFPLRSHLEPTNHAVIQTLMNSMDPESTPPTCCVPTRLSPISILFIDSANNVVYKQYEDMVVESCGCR
Kind of test: SPR; Ca; replicate 1. For orientation: In SPR one partner is held on a chip, and binding of the other changes the refractive index at the surface.

For test [2], the target named is T2, human BMP7 (human, UniProt P18075 293-431).
T2 chain: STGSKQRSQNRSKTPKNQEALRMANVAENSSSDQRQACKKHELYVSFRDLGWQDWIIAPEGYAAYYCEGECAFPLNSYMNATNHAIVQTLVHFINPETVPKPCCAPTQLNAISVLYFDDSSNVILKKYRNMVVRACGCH
Kind of test: SPR; Ca; replicate 1.

The target of test [3] is T3, human BMP2 (human, UniProt P12643 283-396).
T3 chain: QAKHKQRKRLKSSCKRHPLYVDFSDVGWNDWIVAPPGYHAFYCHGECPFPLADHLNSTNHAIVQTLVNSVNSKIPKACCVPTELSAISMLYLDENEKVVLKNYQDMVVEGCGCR
The test can be described thus: SPR; Ca; replicate 1.

The target of test [4] is T2, human BMP7. Kind of test: SPR; Ca; replicate 2.
Test [5] addresses T3, human BMP2. Kind of test: SPR; Ca; replicate 2.
The target in test [6] is T1, human Growth Differentiation Factor 5 …. The test can be described thus: SPR; Ca; replicate 2.
In test [7] the target is T2, human BMP7. Kind of test: SPR; 2 mM EDTA; replicate 1.
Test [8] deals with T1, human Growth Differentiation Factor 5 …. Kind of test: SPR; 2 mM EDTA; replicate 1.
The target of test [9] is T3, human BMP2. Kind of test: SPR; 2 mM EDTA; replicate 1.
Test [10] deals with T2, human BMP7. Kind of test: SPR; 2 mM EDTA; replicate 2.
The target in test [11] is T1, human Growth Differentiation Factor 5 …. Kind of test: SPR; 2 mM EDTA; replicate 2.
The target in test [12] is T3, human BMP2. The test can be described thus: SPR; 2 mM EDTA; replicate 2.
The target in test [13] is T2, human BMP7. The test can be described thus: SPR; 2 mM CaCl2; replicate 1.
In test [14] the target is T1, human Growth Differentiation Factor 5 …. The test can be described thus: SPR; 2 mM CaCl2; replicate 1.
Test [15] has as its target T3, human BMP2. The test can be described thus: SPR; 2 mM CaCl2; replicate 1.
The target in test [16] is T2, human BMP7. The test can be described thus: SPR; 2 mM CaCl2; replicate 2.
The target of test [17] is T1, human Growth Differentiation Factor 5 …. Kind of test: SPR; 2 mM CaCl2; replicate 2.
Test [18] addresses T3, human BMP2. The test can be described thus: SPR; 2 mM CaCl2; replicate 2.

No end group written: not given here.

B1: TWSG1 NTD Asp34Ala (protein)
chain: CNKALCASAVSKCLIQELCQCRPGEGNCSCCKECMLCLGALWDECCDCVGMCNPRNYS
modifications: disulfide (positions not given here); also: 7 disulfides in NTD, pairing not given here
The term Kd denotes a measure of binding affinity in units of concentration. Lower therefore signals higher affinity. B1: the Kd in [1] was found to be 121 nM; in [2] it was 247 nM; in test [3], 943 nM; in [4], 557 nM; in test [5], 771 nM; in [6] it was 60.6 nM.

B2: BMPR1B (receptor)
chain: KKEDGESTAPTPRPKVLRCKCHHHCPEDSVNNICSTDGYCFTMIEEDDSGLPVVTSGCLGLEGSDFQCRDTPIPHQRRSIECCTERNECNKDLHPTLPPLKNRDFVDGPIHHR
Take B2: the Kd in [7] is 13500 nM; in test [8], 4720 nM; in test [9], 8140 nM; in test [10], 12800 nM; in [11], 4010 nM; in test [12], 9540 nM. The Kd was 2940 nM in test [13]; 4550 nM in [14]; 2120 nM in test [15]; 5740 nM in [16]; 2840 nM in test [17]; 1650 nM in test [18].
